Molecular target: Cynomolgus MSLN (cynomolgus macaque)

- Kd: > 100 nM
B1: VH 3C9 (human antibody heavy chain variable domain) (VHH)
VHH: DVQLVESGGGVVQPGRSLRLSCAASGFTFSSYAMHWVRQAPGKGLEWVSSISGNSLYKYYADSVKGRFTISRDDSTNTLYLQMNSLRAEDTATYYCTRHWAVGNWGQGTLVTVSS

Reference: article PMC10522976
